# Experimental data reported in patent US20240360176.
# Test system: pNaKtide
substance,measurement,value
"Src kinase (mouse, endogenous in the liver of C57BL/6J mice)","Src phosphorylation in mouse liver, ratio pSrc/pSrc+cSrc by Western blot","Src phosphorylation peaked in the HFD groups at week 20, with paucity on pSrc peak in the pNaKtide and Exercise groups"
